Legend:
MRL/FAS^lpr mice [1] = test: Histomorphological evaluation of renal tissue (H&E staining); assay type: in vivo; settings: 9 weeks, FIG. 6; for inflammatory cell infiltration within the glomeruli: H&E
Description: Specifically, after the completion of the experiment, the experimental animals of <1-1> were sacrificed, and renal tissues were collected. The collected renal tissues were fixed and dehydrated in 10% formaldehyde and subsequently embedded in paraffin. The fixed renal tissues were sectioned to a thickness of 2 μm and stained with hematoxylin and eosin (H&E). The sectioned tissues were covered with a coverslip and observed under an optical microscope at 400× magnification. Four regions were imaged for each tissue, and two or more researchers assigned scores based on the evaluation items and criteria for histomorphological assessment shown in [Table 3]. The average of the researchers' scores was determined as the scoring value, and the mean of the scoring values for the four regions was calculated as the final score for each tissue.

MRL/FAS^lpr mice [2] = test: Spleen weight in an in vivo model of systemic lupus erythematosus; settings: sGal-9 2 mg/kg SC once per week, 9 weeks, FIG. 5
Description: Additionally, after the completion of the experiment, the experimental animals from <1-1> were sacrificed, and the spleens were extracted for weight measurement.

MRL/FAS^lpr mice [3] = test: Clinical indicators (skin, lymphadenopathy, proteinuria scores) in an in vivo model of systemic lupus erythematosus; settings: 9 weeks; for reduction in skin lesions compared to positive control (Mycophenolate) / skin lesions (skin score) compared to negative control (Vehicle): FIG. 2; for inhibitory effect on lymphadenopathy compared to positive control (Mycophenolate) / lymphadenopathy score compared to negative control (Vehicle): FIG. 3; for proteinuria compared to negative control (Vehicle): FIG. 4
Description: Specifically, the occurrence and severity of lupus were regularly observed from group allocation to the end of the experiment in the experimental animals from <1-1> and evaluated according to the criteria shown in [Table 2].

anti-dsDNA antibodies = test: Plasma anti-dsDNA antibody levels (ELISA) in an in vivo model of systemic lupus erythematosus; parameters: species or system mice; settings: 9 weeks, FIG. 8
Procedure: Anti-dsDNA antibodies are a type of antinuclear antibody (ANA) that target intracellular nuclear components and are present at high titers in systemic lupus erythematosus (SLE). These antibodies are associated with the persistent progression of kidney inflammation and damage.
Specifically, after the completion of the experiment, cardiac blood collection was performed on the experimental animals from <1-1>. The collected blood was allowed to coagulate for 30 minutes using a capillary blood collection tube (Cat. 365967, BD) and then centrifuged at 6,000×g for 10 minutes to obtain plasma. The obtained plasma was diluted at a ratio of 1:2,500, and the concentration of anti-dsDNA antibodies was measured using a Mouse Anti-dsDNA IgG Antibody ELISA Kit (Cat. 3031, Chondrex) according to the manufacturer's protocol.

MRL/FAS^lpr mice [4] = test: IgG immunofluorescence staining of renal tissue; assay type: in vivo; settings: 9 weeks, FIG. 7
Procedure: Additionally, the collected kidney tissues were frozen, sectioned at a thickness of 4 μm, and fixed in cold acetone for 5 minutes, followed by two washes with phosphate-buffered saline (PBS) for 5 minutes each. To eliminate non-specific reactions, blocking was performed for 30 minutes using a PBS solution containing 1% bovine serum albumin and 0.05% Tween-20. The sections were then incubated at room temperature for 1 hour with FITC-conjugated goat anti-mouse IgG antibody (1:200, AP308F, Merck Millipore). After three washes with PBS for 5 minutes each, nuclear staining was performed using DAPI, and the sections were covered with a cover glass using mounting medium. The samples were then examined using a confocal laser scanning microscope (C2 Plus, Nikon). […] Furthermore, it was confirmed that the glomerular lesion scores decreased in the positive control group (Mycophenolate) and the sGal-9 treatment groups (sGal-9 2 mg/kg and sGal-9 4 mg/kg) compared to the negative control group (Vehicle).

[5] = sGal-9 2 mg/kg SC once per week
[6] = sGal-9 4 mg/kg SC once per week

B1: sGal-9: recombinant stabilized galectin-9 protein of Sequence No. 1: linker entirely deleted, CCRD positions 1 to 10 deleted, alanine 13 substituted with proline (protein)
chain: MAFSGSQAPYLSPAVPFSGTIQGGLQDGLQITVNGTVLSSSGTRFAVNFQTGFSGNDIAFHFNPRFEDGGYVVCNTRQNGSWGPEERKTHMPFQKGMPFDLCFLVQSSDFKVMVNGILFVQYFHRVPFHRVDTISVNGSVQLSYISFQHPPYPMPFITTILGGLYPSKSILLSGTVLPSAQRFHINLCSGNHIAFHLNPRFDENAVVRNTQIDNSWGSEERSLPRKMPFVRGQSFSVWILCEAHCLKVAVDGQHLFEYYHRLRNLPTINRLEVGGDIQLTHVQT
modifications: sGal-9
MRL/FAS^lpr mice [1]; [5]
  glomerular lesion scores compared to negative control (Vehicle): decreased
  inflammatory cell infiltration within the glomeruli: reduction
MRL/FAS^lpr mice [1]; [6]
  glomerular lesion scores compared to negative control (Vehicle): decreased
  inflammatory cell infiltration within the glomeruli: reduction
MRL/FAS^lpr mice [2]
  spleen weight compared to negative control (Vehicle): decreased
MRL/FAS^lpr mice [3]; [5]
  reduction in skin lesions compared to positive control (Mycophenolate): more pronounced
  skin lesions (skin score) compared to negative control (Vehicle): reduced
  inhibitory effect on lymphadenopathy compared to positive control (Mycophenolate): more pronounced
  lymphadenopathy score compared to negative control (Vehicle): decreased
  proteinuria compared to negative control (Vehicle): decreased
MRL/FAS^lpr mice [3]; [6]
  reduction in skin lesions compared to positive control (Mycophenolate): more pronounced
  skin lesions (skin score) compared to negative control (Vehicle): reduced
  inhibitory effect on lymphadenopathy compared to positive control (Mycophenolate): more pronounced
  lymphadenopathy score compared to negative control (Vehicle): decreased
  proteinuria compared to negative control (Vehicle): decreased
anti-dsDNA antibodies; [5]
  concentration of anti-dsDNA antibodies in plasma compared to negative control (Vehicle): decreased
anti-dsDNA antibodies; [6]
  concentration of anti-dsDNA antibodies in plasma compared to negative control (Vehicle): decreased
  reduction in anti-dsDNA antibody levels compared to positive control (Mycophenolate): superior reduction
MRL/FAS^lpr mice [4]; [5]
  IgG deposition in the kidney compared to negative control (Vehicle): decreased
MRL/FAS^lpr mice [4]; [6]
  IgG deposition in the kidney compared to negative control (Vehicle): decreased
